Source: PMC7113306, “Molecular basis of ALK1-mediated signalling by BMP9/BMP10 and their prodomain-bound forms” (Nature Communications, 2020)

Key:
soluble endoglin (sENG) = molecular target: T1, soluble endoglin (sENG) (human, UniProt P17813 26-586); experiment: SEC; analytical gel filtration, Superdex 200 10/300, 20 mM Tris.HCl, 150 mM NaCl, pH 7.4; 100 μg protein with 2-fold molar excess of ALK1 ECD; peaks checked by SDS-PAGE and anti-prodomain blot; settings: both partners purified
T1 construct: signal peptide in the construct; endoglin (ENG), human, residue 1-586 of the cDNA; source: HEK EBNA, transfected (pCEP4), purified from conditioned medium (HiTrap Excel, HiTrap Q, Superdex 200)
T1 sequence (looked up): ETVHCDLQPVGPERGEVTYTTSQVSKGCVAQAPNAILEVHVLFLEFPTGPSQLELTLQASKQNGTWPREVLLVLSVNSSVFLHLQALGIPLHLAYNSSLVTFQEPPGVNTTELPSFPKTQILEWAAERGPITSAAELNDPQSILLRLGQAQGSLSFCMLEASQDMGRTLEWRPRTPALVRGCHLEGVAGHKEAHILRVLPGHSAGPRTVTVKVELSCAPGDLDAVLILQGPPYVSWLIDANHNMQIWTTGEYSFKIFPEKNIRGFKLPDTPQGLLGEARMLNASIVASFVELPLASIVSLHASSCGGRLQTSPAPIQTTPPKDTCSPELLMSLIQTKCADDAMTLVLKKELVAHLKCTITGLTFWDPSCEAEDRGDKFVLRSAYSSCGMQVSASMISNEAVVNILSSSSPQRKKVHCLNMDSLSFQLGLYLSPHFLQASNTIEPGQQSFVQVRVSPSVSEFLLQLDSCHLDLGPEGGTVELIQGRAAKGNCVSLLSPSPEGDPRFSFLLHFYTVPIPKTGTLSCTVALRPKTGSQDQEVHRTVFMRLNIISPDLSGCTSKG

[1] = molecular target: the molecule itself; experiment: crystal structure; pro-BMP9 mixed with ALK1 ECD at 1:1.5, 3.3 Å, space group P6_(1)
[2] = molecular target: T2, ALK1 extracellular domain (ALK1 ECD) (human, UniProt P37023 22-118); experiment: crystal structure; BMP10 GF-domain with ALK1 ECD, 2.3 Å and 2.8 Å, space group P6_(5)22; settings: both partners purified
T2 construct: activin receptor-like kinase 1 (ALK1), human, cDNA NM_000020, amino acids 22-118; Released from DsbA-(His)6 by TEV protease; also called ALK1 monomer; source: E. coli Rosetta DE3, periplasm, purified (Ni-NTA, TEV cleavage, Superdex 75); not shown: DsbA, N-terminal, cleaved; His6, N-terminal, cleaved

[3] = molecular target: the molecule itself; experiment: as above

T2 sequence (P37023 22-118): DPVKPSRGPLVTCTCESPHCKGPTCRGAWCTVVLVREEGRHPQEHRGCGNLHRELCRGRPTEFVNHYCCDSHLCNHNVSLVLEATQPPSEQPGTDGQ

B1: BMP9 GF-domain from pro-BMP9 (ligand, human, UniProt Q9UK05 320-429, looked up)
chain: SAGAGSHCQKTSLRVNFEDIGWDSWIIAPKEYEAYECKGGCFFPLADDVTPTKHAIVQTLVHLKFPTKVGKACCVPTKLSPISVLYKDDMGVPTLKYHYEGMSVAECGCR
notes: BMP9 GF-domain, human, the processed C-terminal product of full-length proBMP9; also called BMP9 dimer; source: HEK EBNA, as part of purified pro-BMP9
binding result (soluble endoglin (sENG)): binds
stoichiometry N [1]: 2

B2: BMP10 GF-domain from pro-BMP10 (ligand, human, UniProt O95393 317-424, looked up)
chain: NAKGNYCKRTPLYIDFKEIGWDSWIIAPPGYEAYECRGVCNYPLAEHLTPTKHAIIQALVHLKNSQKASKACCVPTKLEPISILYLDKGVVTYKFKYEGMAVSECGCR
notes: BMP10 GF-domain, human, the processed C-terminal product of full length proBMP10; also called BMP10 GF-domain disulphide-linked dimer; source: HEK EBNA, as part of purified pro-BMP10
stoichiometry N [2]: 1 ALK1 ECD per BMP10 monomer (2:2)
stoichiometry N [3]: 2
